# Data from PMC2724291 (Nucleic Acids Research, 2009).
# Read-outs that look alike come from different tables or passages of the source.
# B1: hMBP-γ (H1 and H2 of the putative coiled-coil motif of ϕC31 Int fused to histidine-tagged maltose-binding protein) (domain or fragment, phage ϕC31, UniProt Q9T221 445-524, looked up)
# chain: GKLTEAPEKSGERANLVAERADALNALEELYEDRAAGAYDGPVGRKHFRKQQAALTLRQQGAEERLAELEAAEAPKLPLD
# B2: hMBP-γ^E449K (domain or fragment, phage ϕC31, UniProt Q9T221 445-524, looked up)
# chain: GKLTKAPEKSGERANLVAERADALNALEELYEDRAAGAYDGPVGRKHFRKQQAALTLRQQGAEERLAELEAAEAPKLPLD
# B3: wild-type ϕC31 integrase (Int) (enzyme, phage ϕC31, UniProt Q9T221 1-605, looked up)
# chain: MDTYAGAYDRQSRERENSSAASPATQRSANEDKAADLQREVERDGGRFRFVGHFSEAPGTSAFGTAERPEFERILNECRAGRLNMIIVYDVSRFSRLKVMDAIPIVSELLALGVTIVSTQEGVFRQGNVMDLIHLIMRLDASHKESSLKSAKILDTKNLQRELGGYVGGKAPYGFELVSETKEITRNGRMVNVVINKLAHSTTPLTGPFEFEPDVIRWWWREIKTHKHLPFKPGSQAAIHPGSITGLCKRMDADAVPTRGETIGKKTASSAWDPATVMRILRDPRIAGFAAEVIYKKKPDGTPTTKIEGYRIQRDPITLRPVELDCGPIIEPAEWYELQAWLDGRGRGKGLSRGQAILSAMDKLYCECGAVMTSKRGEESIKDSYRCRRRKVVDPSAPGQHEGTCNVSMAALDKFVAERIFNKIRHAEGDEETLALLWEAARRFGKLTEAPEKSGERANLVAERADALNALEELYEDRAAGAYDGPVGRKHFRKQQAALTLRQQGAEERLAELEAAEAPKLPLDQWFPEDADADPTGPKSWWGRASVDDKRVFVGLFVDKIVVTKSTTGRGQGTPIEKRASITWAKPPTDDDEDDAQDGTEDVAA
# How the values were obtained:
# SEC [1] = biological target: the molecule itself; test: SEC
# SEC [2] = biological target: the molecule itself; test: SEC; remark: listed apart in the source
protein,measurement,setting,value
B1,stoichiometry N,SEC [1],2
B2,binding result,SEC [1],binds
B3,binding result,SEC [2],binds
